In patent publication US20110014669A1, “Production of 1,4 Butanediol in a Microorganism” (Microbia, Inc., priority 2009, published 2011):

B1: ARO10Sc: Enzyme candidate for BDO biosynthetic pathway step A5, SEQ ID NO. 70 (protein, listed as Saccharomyces cerevisiae)
chain: MAPVTIEKFVNQEERHLVSNRSATIPFGEYIFKRLLSIDTKSVFGVPGDFNLSLLEYLYSPSVESAGLRWVGTCNELNAAYAADGYSRYSNKIGCLITTYGVGELSALNGIAGSFAENVKVLHIVGVAKSIDSRSSNFSDRNLHHLVPQLHDSNFKGPNHKVYHDMVKDRVACSVAYLEDIETACDQVDNVIRDIYKYSKPGYIFVPADFADMSVTCDNLVNVPRISQQDCIVYPSENQLSDIINKITSWIYSSKTPAILGDVLTDRYGVSNFLNKLICKTGIWNFSTVMGKSVIDESNPTYMGQYNGKEGLKQVYEHFELCDLVLHFGVDINEINNGHYTFTYKPNAKIIQFHPNYIRLVDTRQGNEQMFKGINFAPILKELYKRIDVSKLSLQYDSNVTQYTNETMRLEDPTNGQSSIITQVHLQKTMPKFLNPGDVVVCETGSFQFSVRDFAFPSQLKYISQGFFLSIGMALPAALGVGIAMQDHSNAHINGGNVKEDYKPRLILFEGDGAAQMTIQELSTILKCNIPLEVIIWNNNGYTIERAIMGPTRSYNDVMSWKWTKLFEAFGDFDGKYTNSTLIQCPSKLALKLEELKNSNKRSGIELLEVKLGELDFPEQLKCMVEAAALKRNKK
B2: LysAEc: Enzyme candidate for BDO biosynthetic pathway step A5, SEQ ID NO. 66 (protein, listed as Escherichia coli)
chain: MPHSLFSTDTDLTAENLLRLPAEFGCPVWVYDAQIIRRQIAALKQFDVVRFAQKACSNIHILRLMREQGVKVDSVSLGEIERALAAGYNPQTHPDDIVFTADVIDQATLERVSELQIPVNAGSVDMLDQLGQVSPGHRVWLRVNPGFGHGHSQKTNTGGENSKHGIWYTDLPAALDVIQRHHLQLVGIHMHIGSGVDYAHLEQVCGAMVRQVIEFGQDLQAISAGGGLSVPYQQGEEAVDTEHYYGLWNAAREQIARHLGHPVKLEIEPGRFLVAQSGVLITQVRSVKQMGSRHFVLVDAGFNDLMRPAMYGSYHHISALAADGRSLEHAPTVETVVAGPLCESGDVFTQQEGGNVETRALPEVKAGDYLVLHDTGAYGASMSSNYNSRPLLPEVLFDNGQARLIRRRQTIEELLALELL
B3: HomCg: Enzyme candidate for BDO biosynthetic pathway step A3, SEQ ID NO. 22 (protein, listed as Corynebacterium glutamicum)
chain: MTSASAPSFNPGKGPGSAVGIALLGFGTVGTEVMRLMTEYGDELAHRIGGPLEVRGIAVSDISKPREGVAPELLTEDAFALIEREDVDIVVEVIGGIEYPREVVLAALKAGKSVVTANKALVAAHSAELADAAEAANVDLYFEAAVAGAIPVVGPLRRSLAGDQIQSVMGIVNGTTNFILDAMDSTGADYADSLAEATRLGYAEADPTADVEGHDAASKAAILASIAFHTRVTADDVYCEGISNISAADIEAAQQAGHTIKLLAICEKFTNKEGKSAISARVHPTLLPVSHPLASVNKSFNAIFVEAEAAGRLMFYGNGAGGAPTASAVLGDVVGAARNKVHGGRAPGESTYANLPIADFGETTTRYHLDMDVEDRVGVLAELASLFSEQGISLRTIRQEERDDDARLIVVTHSALESDLSRTVELLKAKPVVKAINSVIRLERD
B4: HomAu: Enzyme candidate for BDO biosynthetic pathway step A3, SEQ ID NO. 24 (protein, listed as Arthrobacter aurescens)
chain: MSEMRTLKVALLGCGNVGAQVARILIDDAEALAARSGARLELSGIAVRNVDSPRDVELPRELFTTDADTLVKDADLVIELMGGIEPARSLILTAIQNGACVVTGNKALLAQDGPTLYEEADKAGVQLSYEAAVAGAIPILRPIRDSLSGDRITRVLGIVNGTTNFILDQMDSTGAQFADALAEAQRLGYAEADPTADVEGHDAAAKAAILASLSFHTRFSLDDVYCEGITKVSAADIASAKEAGFVIKLLAIAEKIDSSDNGSGISVRVHPTLLPREHPLAAVRGAFNAVFIEAENAGELMFYGQGAGGTPTASAVLGDLVSAARRLVLGGPGRTETTTGHVPALAIDASNTSYYIGLDVADQAGVLARIAHIFAENGVSIEIMRQTIHRDSASNVESAELKIVTHRASEAALAATVEAVKGLDVINSVTSVLRVEGV
B5: YiaQEc: Enzyme candidate for BDO biosynthetic pathway step A5, SEQ ID NO. 67 (protein, listed as Escherichia coli)
chain: MSRPLLQLALDHSSLEAAQRDVTLLKDSVDIVEAGTILCLNEGLGAVKALREQCPDKIIVADWKVADAGETLAQQAFGAGANWMTIICAAPLATVEKGHAMAQRCGGEIQIELFGNWTLDDARDWHRIGVRQAIYHRGRDAQASGQQWGEADLARMKALSDIGLELSITGGITPADLPLFKDIRVKAFIAGRALAGAANPAQVAGDFHAQIDAIWGGARA
B6: UlaDEc: Enzyme candidate for BDO biosynthetic pathway step A5, SEQ ID NO. 68 (protein, listed as Escherichia coli)
chain: MSLPMLQVALDNQTMDSAYETTRLIAEEVDIIEVGTILCVGEGVRAVRDLKALYPHKIVLADAKIADAGKILSRMCFEANADWVTVICCADINTAKGALDVAKEFNGDVQIELTGYWTWEQAQQWRDAGIGQVVYHRSRDAQAAGVAWGEADITAIKRLSDMGFKVTVTGGLALEDLPLFKGIPIHVFIAGRSIRDAASPVEAARQFKRSIAELWG
B7: KgdMs: Enzyme candidate for BDO biosynthetic pathway step A5, SEQ ID NO. 69 (protein, listed as Mycobacterium smegmatis)
chain: MSSSPSPFGQNEWLVEEMYRKFRDDPSSVDPSWHEFLVDYSPEPTTDSASNGRTTTAAPVTPPTPAPAPAPEPKAAPKPAAKTEAKPAKPAKSATPAKGDESQILRGAAAAVVKNMNASLEVPTATSVRAIPAKLMIDNRVVINNHLKRTRGGKISFTHLLGYAIVQAVKKFPNMNRHFAVVDGKPTAITPAHTNLGLAIDLQGKDGNRSLVVAAIKRCETMRFGQFIAAYEDIVRRARDGKLTAEDFSGVTISLTNPGTLGTVHSVPRLMQGQGAIIGAGAMEYPAEFQGASEERIADLGIGKLITLTSTYDHRIIQGAESGDFLRTIHQLLLDDDFFDEIFRELGIPYEPVRWRTDNPDSIEDKNARVIELIAAYRNRGHLMADIDPLRLDNTRFRSHPDLDVNSHGLTLWDLDREFKVDGFAGVQRKKLRDILSVLRDAYCRHVGVEYTHILEPEQQRWIQERVETKHDKPTVAEQKYILSKLNAAEAFETFLQTKYVGQKRFSLEGAETVIPMMDAVIDQCAEHGLDEVVIAMPHRGRLNVLANIVGKPYSQIFSEFEGNLNPSQAHGSGDVKYHLGATGTYIQMFGDNDIEVSLTANPSHLEAVDPVLEGLVRAKQDLLDTGEEGSDNRFSVVPLMLHGDAAFAGQGVVAETLNLALLRGYRTGGTIHIVVNNQIGFTTAPTDSRSSEYCTDVAKMIGAPIFHVNGDDPEACAWVARLAVDFRQAFKKDVVIDMLCYRRRGHNEGDDPSMTQPYMYDVIDTKRGSRKAYTEALIGRGDISMKEAEDALRDYQGQLERVFNEVRELEKHEIEPSESVEADQQIPSKLATAVDKAMLQRIGDAHLALPEGFTVHPRVRPVLEKRREMAYEGRIDWAFAELLALGSLIAEGKLVRLSGQDTQRGTFTQRHAVIVDRKTGEEFTPLQLLATNPDGTPTGGKFLVYNSALSEFAAVGFEYGYSVGNPDAMVLWEAQFGDFVNGAQSIIDEFISSGEAKWGQLSDVVLLLPHGHEGQGPDHTSGRIERFLQLWAEGSMTIAMPSTPANYFHLLRRHGKDGIQRPLIVFTPKSMLRNKAAVSDIRDFTESKFRSVLEEPMYTDGEGDRNKVTRLLLTSGKIYYELAARKAKENREDVAIVRIEQLAPLPRRRLAETLDRYPNVKEKFWVQEEPANQGAWPSFGLTLPEILPDHFTGLKRISRRAMSAPSSGSSKVHAVEQQEILDTAFG

Legend:
[1] = test system: 5-hydroxy-2-oxopentanoate; assay: Enzyme assay, decarboxylase (step A5), aldehyde dehydrogenase linked reaction; type: biochemical; design: key: +: measureable activity detected in the assay; −: no measurable activity detected in the assay; conditions: BDO biosynthetic pathway step A5
Experimental: (§1) Enzyme expression and crude lysate preparation. The enzymatic activity of each candidate enzyme is evaluated, first in E. coli and subsequently in C. glutamicum. It will be apparent to one of skill in the art that the expression and lysate preparations may need to be modified depending on the host cell and recombinant gene of interest.
(§2) E. coli: E. coli strains transformed with expression clones, for example, pUC18 or MB4124 based clones having a medium strong constitutive promoter regulating the recombinant gene of interest, are grown aerobically in LB medium (Difco) containing the appropriate antibiotic(s). At an OD600 of 0.5, IPTG is added to a final concentration of 0.25 mM. The cultures are grown to a final OD600 of 1.5 at which time the cells are collected and harvested by centrifugation. Cell pellets are resuspended in BugBuster (Novagen) reagent containing benzonase and lysozyme. Alternatively, E. coli strains transformed with expression clones, are grown overnight aerobically at 37° C. in BHI containing the appropriate antibiotic(s). 300 μL of fresh overnight culture is used to inoculate 2.7 mL BHI containing 0.25 mM IPTG and the appropriate antibiotic. The cultures are grown aerobically for 4-5 hours at 37° C. at which time the cells are collected and harvested by centrifugation. Cell pellets are frozen at −80° C. for at least 15 minutes, then thawed and resuspended in BugBuster (Novagen) reagent. Lysis and lysate collection are performed according to the manufacturer's instructions and, for example, may involve use of a sonicator and/or French press. Cleared lysates are stored on ice until enzyme assays are performed.
(§3) C. glutamicum: C. glutamicum strains transformed with MB4124 expression clones containing the recombinant gene of interest are grown aerobically in BHI broth supplemented with the proper antibiotic(s). At an OD600 of 0.5, IPTG is added to a final concentration of 0.25 mM. The cultures are grown to a final OD600 of 1.5 at which time the cells are collected and harvested by centrifugation. The pellet is washed once in one volume of water and resuspended in lysis buffer (1.0 ml 1.0 M HEPES buffer, pH 7.5, 0.5 ml 1M KOH, 10 μl 0.5M EDTA, protease inhibitor cocktail, water to 5 ml; the final pH will vary depending on the individual enzyme being tested) and one volume of 0.1 mm acid washed glass beads. The mixture is repeatedly alternately vortexed and held on ice for 15 seconds, eight times. After centrifugation for 5 min at 4,000 rpm, the supernatant lysate is removed and respun for 20 min at 10,000 rpm. Alternatively, C. glutamicum strains transformed with MB4124 expression clones containing the recombinant gene of interest are grown aerobically overnight in BHI broth supplemented with the proper antibiotic(s). Five mL of fresh overnight culture is used to inoculate 200 mL BHI containing 0.25 mM IPTG and the appropriate antibiotic. The cultures are grown aerobically at 30° C. for 5-7 hours at which time the cells are collected and harvested by centrifugation at 4° C. The pellet is resuspended in 15 mL ice cold 39 mM KH2PO4, 61 mM K2HPO4, 0.5 M KCl and lysed using a BioSpec BeadBeater and following the manufacturer's instructions. The lysate is centrifuged at 16,000 RPM at 4° C. for 30 minutes and the supernatant retained on ice as the extract.
Protein Assays. Protein concentrations in lysates are determined according to the methods of Bradford et al. (Anal. Biochem. 72:248-254 [1976]) or by the method of Smith et al. (Anal. Biochem. 150(1):76-85 [1985]) and lysates are assayed according to the methods below.
Enzyme Assays. Enzyme assays are performed on the cell lysates prepared above. The activity for each recombinant enzyme is compared to a lysate from a vector only control culture which is generated in a fashion identical to the recombinant enzyme lysate. […]

[2] = test system: L-glutamate 5-semialdehyde (GSA); assay: Enzyme assay, oxidoreductase (step A3), cell lysates; type: biochemical; design: key: +: measureable activity detected in the assay; −: no measurable activity detected in the assay; conditions: BDO biosynthetic pathway step A3
Experimental: as §1, §2
as §3, with “The lysate is centrifuged at 16,000 RPM at 4° C. for 30 minutes and the supernatant retained on ice as the extract.” left out
Protein Assays. Protein concentrations in lysates are determined according to the methods of Bradford et al. (Anal. Biochem. 72:248-254 [1976]) or by the method of Smith et al. (Anal. Biochem. 150(1):76-85 [1985]) and lysates are assayed according to the methods below. […]

Row | Molecule | Enzyme Assay [1] | Enzyme Assay [2]
1 | B1 | − | 
2 | B2 | − | 
3 | B3 |  | −
4 | B4 |  | −
5 | B5 | − | 
6 | B6 | − | 
7 | B7 | − | 
